Experimental data published in patent US20060263331A1, “Therapeutic use of tumor necrosis factor-alpha mutein” (priority 2002, published 2006).

What was measured:
[1] = in vivo
Experimental: Patients with the following malignancy: malignant lymphoma, lung cancer, melanoma, breast cancer, liver cancer, kidney cancer, colon cancer, pleural effusion and ascites were treated with a monotherapy of the recombinant protein rhTNFm1 described above.
Patients were treated with rhTNFm1 at 600,000-900,000 unit/m^2 (about 1-50 μg/m^2 depending on the specific bioactivity of a particular lot) per day, 5 times a week (day 3-7) via i.v. injection. Patients rested on day 1 and 2. The treatment cycle was 3-4 weeks.

Kidney Cancer = assay: Clinical monotherapy of rhTNFm1, kidney cancer; assay type: in vivo, human; conditions: 3 patients
From the text: (§1) Patients were selected based on the following criteria: i) measurable, objective tumor; ii) Karnofsky performance status (KPS)≧60; iii) age 18-75; iv) major organs in basically normal condition; v) no chemotherapy, radiotherapy and biologic therapy within the last month; vi) predicted ≧3 mon. survival; and vii) with patient's informed consent signed.
(§2) Patients were excluded based on the following criteria: i) with history of allergic reactions to TNF or its derivatives; ii) pregnant or lactating women; iii) major organs with obvious damages or malfunction; iv) in ≧38° C. fever; v) with obvious tendency to haemorrhage; vi) with history of hypo- or hypertension; vii) with serious albuminemia; and viii) with strong tendency of disobedience or resistance.
(§3) Patients were removed from the evaluation if any of the following conditions apply: i) treatment was not completed according to the protocol; ii) incomplete records; and iii) treatment using cancer therapies not in the protocol. However, patients who withdrew due to adverse reactions to the therapy were still included in the evaluation.
(§4) The results of the treatment of tumors were evaluated based the following criteria: i) complete response (CR)—complete disappearance of observable pathological changes for at least 4 weeks; ii) partial response (PR)—reduction by ≧50% in tumor size measured by the product of the maximum circular and vertical dimensions for at least 4 weeks; iii) minimum response (MR)—reduction by >25% but <50% in tumor size measured by the product of the maximum circular and vertical dimensions for at least 4 weeks; iv) stabilized (SD)—reduction by ≦25% but without increase by >25% in tumor size measured by the product of the maximum circular and vertical dimensions for at least 4 weeks; and progression (PD): increase by >25% in tumor size in one or more sites.
(§5) Patients rested on day 1 and 2. The treatment cycle was 3-4 weeks.

[2] = tested on: malignant pleural effusion or ascites; assay: Clinical monotherapy of rhTNFm1, malignant pleural effusion or ascites (Total); assay type: in vivo, human; conditions: 169 patients
From the text: as §1, §2, §3
The results of the treatment of malignant pleural effusion (or hydrothorax) and ascites were evaluated based on a modified Millar standard (Millar J W, Hunfer A M, Home N W. (1980) “Inerapleural immunotherapy with CP”, in Recurrent Malignant Pleural Effusions. Thorax 35:856): i) complete response (CR)—complete disappearance of pleural effusion or ascites for at least 1 month; ii) partial response (PR)—reduction by at least 1 grade for at least 1 month; iii) minimum response (MR)—reduction in the levels of pleural effusion or ascites within the same grade for at least 1 month; iv) stabilized (SD)—levels of pleural effusion or ascites maintained within the same grade for at least 1 month; and progressed (PD): increase in the levels of pleural effusion or ascites compared with those before the treatment.
as §5
It is noted that Table III includes the patients who withdrew due to […], including 1 with malignant pleural effusion and 1 with malignant ascites. For patients with malignant ascites, rhTNFm1 was reconstituted in 30-50 ml normal saline and administered intraperitoneally (i.p.) at 2,000,000-3,000,000 units each time, 1-2 times a week, with 2-3 weeks as one treatment cycle. Optionally, rhTNFm1 was administered to the patients by alternating between i.p. injection and i.v. injection (at 600,000-900,000 unit/m^2 per day continuing for 28 days as one treatment cycle). On the day when rhTNFm1 was administered via i.p. injection, administration of rhTNFm1 via i.v. injection was stopped.

Hodgkin's disease = assay: Clinical monotherapy of rhTNFm1, Hodgkin's disease; assay type: in vivo, human; conditions: for Efficacy CR / Efficacy MR / Efficacy PD / Efficacy PR / Efficacy SD: patient count
From the text: as §1, §2, §3, §4, §5
Table II summaries results of the treatment of patients with malignant lymphoma, classified according to Hodgkin's disease and non-Hodgkin's lymphoma. Within each of category of lymphoma, patients were further classified into two groups: chemo-naïve and chemo-refractory. The chemo-naïve patients were patients who had never been treated with any anti-cancer agent previously whereas chemo-refractory patients were ones who failed treatment with one or more anti-cancer agent.

malignant tumors = assay: Clinical monotherapy of rhTNFm1, all malignant tumors (Total); assay type: in vivo, human; conditions: Total of tumor indications, 141 patients
From the text: as §1, §2, §3, §4, §5

Malignant melanoma = assay: Clinical monotherapy of rhTNFm1, malignant melanoma; assay type: in vivo, human; conditions: 18 patients
From the text: as §1, §2, §3, §4, §5

[3] = Chemo-naïve Grade I & II, 0 patients
[4] = Chemo-naïve Grade III & IV, 0 patients

B1: rhTNFm1: Recombinant human TNF-α mutant 1 expressed in E. coli; SEQ ID NO: 3 with N-terminal methionine (FIG. 1, 2) (protein)
chain: MRKRKPVAHVVANPQAEGQLQWLNRRANALLANGVELRDNQLVVPSEGLYLIYSQVLFKGQGCPSTHVLLTHTISRIAVSYQTKVNLLSAIKSPCQRETPEGAEAKPWYEPIYLGGVFQLEKGDRLSAEINRPDYLDFAESGQVYFGIIAQ
modifications: rhTNFm1 with Met
With B1 as the molecule, how does the “adverse effects compared to wild type TNF-α” value [1] read?
Its value is “much fewer and weaker adverse effects”.

What about the duration of chill [1] of the same molecule?
Its duration of chill is no more than 30 min.

What about the duration of chills [1] of the same molecule?
Its duration of chills is “no more than half an hour”.

And the duration of fever [1]?
Its duration of fever is “no more than half an hour”.

And the “fever grade during the treatment” value [1]?
The value was “Grade I”.

What about the “highest body temperature during the treatment” value [1] of the same molecule?
Its value is 37.2 °C.

And the “patients with 3rd degree fever” value [1]?
Its value is “two”.

What about the patients with chills [1] of the same molecule?
The patients with chills was 23%.

What about the “patients with fever below the 2nd degree” value [1] of the same molecule?
The value was “About 38%”.

And the “patients with mild chills” value [1]?
The value was 11%.

And the “patients with slight chills” value [1]?
The value was 12%.

And the “time of occurrence of chills after the administration” value [1]?
Its value is no more than 30 min.

And the “time of occurrence of fever post administration” value [1]?
Its value is 1 to 2 h.

And the “adverse reactions during the treatment” value ([1]; iv)?
Its value is “slight asthenia”.

What about the “Response Rate (%) CR” value (Kidney Cancer) of the same molecule?
The value was 0.00%.

And the “Response Rate (%) CR + PR” value (Kidney Cancer)?
The value was 0.00%.

What about the “Response Rate (%) PR” value (Kidney Cancer) of the same molecule?
Its value is 0.00%.

What about the “Efficacy CR” value (Kidney Cancer; patient count) of the same molecule?
Its value is 0.

What about the “Efficacy MR” value (Kidney Cancer; patient count) of the same molecule?
The value was 1.

And the “Efficacy PD” value (Kidney Cancer; patient count)?
Its value is 1.

And the “Efficacy PR” value (Kidney Cancer; patient count)?
The value was 0.

What about the “Efficacy SD” value (Kidney Cancer; patient count) of the same molecule?
The value was 1.

And the “Response Rate (%) CR” value [2]?
The value was 8.88%.

And the “Response Rate (%) CR + PR” value [2]?
The value was 69.23%.

And the “Response Rate (%) PR” value [2]?
Its value is 60.36%.

What about the “Efficacy CR” value ([2]; patient count) of the same molecule?
The value was 15.

What about the “Efficacy MR” value ([2]; patient count) of the same molecule?
Its value is 12.

What about the “Efficacy PD” value ([2]; patient count) of the same molecule?
The value was 2.

What about the “Efficacy PR” value ([2]; patient count) of the same molecule?
The value was 102.

And the “Efficacy SD” value ([2]; patient count)?
Its value is 38.

And the “Response Rate (%) CR” value (Hodgkin's disease; [3])?
The value was 0%.

What about the “Response Rate (%) CR + PR” value (Hodgkin's disease; [3]) of the same molecule?
The value was 0%.

And the “Response Rate (%) PR” value (Hodgkin's disease; [3])?
Its value is 0%.

What about the “Response Rate (%) CR” value (Hodgkin's disease; [4]) of the same molecule?
Its value is 0%.

What about the “Response Rate (%) CR + PR” value (Hodgkin's disease; [4]) of the same molecule?
The value was 0%.

What about the “Response Rate (%) PR” value (Hodgkin's disease; [4]) of the same molecule?
The value was 0%.

What about the “Response Rate (%) CR” value (Hodgkin's disease; Chemo-naïve Total, 0 patients) of the same molecule?
Its value is 0%.

What about the “Response Rate (%) CR + PR” value (Hodgkin's disease; Chemo-naïve Total, 0 patients) of the same molecule?
The value was 0%.

What about the “Response Rate (%) PR” value (Hodgkin's disease; Chemo-naïve Total, 0 patients) of the same molecule?
The value was 0%.

And the “Response Rate (%) CR” value (Hodgkin's disease; Chemo-refractory, 6 patients)?
Its value is 0%.

What about the “Response Rate (%) CR + PR” value (Hodgkin's disease; Chemo-refractory, 6 patients) of the same molecule?
The value was 0%.

And the “Response Rate (%) PR” value (Hodgkin's disease; Chemo-refractory, 6 patients)?
Its value is 0%.

What about the “Efficacy CR” value (Hodgkin's disease; [3]) of the same molecule?
The value was 0.

And the “Efficacy MR” value (Hodgkin's disease; [3])?
Its value is 0.

And the “Efficacy PD” value (Hodgkin's disease; [3])?
The value was 0.

What about the “Efficacy PR” value (Hodgkin's disease; [3]) of the same molecule?
The value was 0.

What about the “Efficacy SD” value (Hodgkin's disease; [3]) of the same molecule?
Its value is 0.

What about the “Efficacy CR” value (Hodgkin's disease; [4]) of the same molecule?
The value was 0.

And the “Efficacy MR” value (Hodgkin's disease; [4])?
The value was 0.

What about the “Efficacy PD” value (Hodgkin's disease; [4]) of the same molecule?
The value was 0.

What about the “Efficacy PR” value (Hodgkin's disease; [4]) of the same molecule?
The value was 0.

And the “Efficacy SD” value (Hodgkin's disease; [4])?
Its value is 0.

And the “Efficacy CR” value (Hodgkin's disease; Chemo-naïve Total, 0 patients)?
The value was 0.

And the “Efficacy MR” value (Hodgkin's disease; Chemo-naïve Total, 0 patients)?
Its value is 0.

What about the “Efficacy PD” value (Hodgkin's disease; Chemo-naïve Total, 0 patients) of the same molecule?
The value was 0.

And the “Efficacy PR” value (Hodgkin's disease; Chemo-naïve Total, 0 patients)?
The value was 0.

What about the “Efficacy SD” value (Hodgkin's disease; Chemo-naïve Total, 0 patients) of the same molecule?
Its value is 0.

What about the “Efficacy CR” value (Hodgkin's disease; Chemo-refractory, 6 patients) of the same molecule?
Its value is 0.

And the “Efficacy MR” value (Hodgkin's disease; Chemo-refractory, 6 patients)?
Its value is 0.

And the “Efficacy PD” value (Hodgkin's disease; Chemo-refractory, 6 patients)?
Its value is 1.

What about the “Efficacy PR” value (Hodgkin's disease; Chemo-refractory, 6 patients) of the same molecule?
Its value is 0.

What about the “Efficacy SD” value (Hodgkin's disease; Chemo-refractory, 6 patients) of the same molecule?
The value was 5.

And the “Response Rate (%) CR” value (malignant tumors)?
Its value is 1.42%.

What about the “Response Rate (%) CR + PR” value (malignant tumors) of the same molecule?
The value was 16.31%.

And the “Response Rate (%) PR” value (malignant tumors)?
The value was 14.89%.

And the “Efficacy CR” value (malignant tumors; patient count)?
Its value is 2.

And the “Efficacy MR” value (malignant tumors; patient count)?
The value was 14.

And the “Efficacy PD” value (malignant tumors; patient count)?
The value was 29.

What about the “Efficacy PR” value (malignant tumors; patient count) of the same molecule?
Its value is 21.

What about the “Efficacy SD” value (malignant tumors; patient count) of the same molecule?
The value was 75.

What about the “Response Rate (%) CR” value (Malignant melanoma) of the same molecule?
The value was 0.00%.

What about the “Response Rate (%) CR + PR” value (Malignant melanoma) of the same molecule?
Its value is 11.11%.

And the “Response Rate (%) PR” value (Malignant melanoma)?
The value was 11.11%.

What about the “Efficacy CR” value (Malignant melanoma; patient count) of the same molecule?
The value was 0.

And the “Efficacy MR” value (Malignant melanoma; patient count)?
The value was 3.

What about the “Efficacy PD” value (Malignant melanoma; patient count) of the same molecule?
Its value is 3.

What about the “Efficacy PR” value (Malignant melanoma; patient count) of the same molecule?
Its value is 2.

And the “Efficacy SD” value (Malignant melanoma; patient count)?
The value was 10.
